Key:
[1] = biological target: T1, Leukotriene A-4 hydrolase (Homo sapiens, UniProt P09960); assay: (§1) Activation of N-terminal (His)6 and Xpress-tagged LTA4H (unknown origin) expressed in Escherichia coli BL21(DE3) cells assessed as increase in aminopeptidase activity by measuring p-nitroanilide release using L-Alanine-p-nitroanilide incubated for 10 mins by UV plate reader based assay
T1 sequence (P09960 whole entry): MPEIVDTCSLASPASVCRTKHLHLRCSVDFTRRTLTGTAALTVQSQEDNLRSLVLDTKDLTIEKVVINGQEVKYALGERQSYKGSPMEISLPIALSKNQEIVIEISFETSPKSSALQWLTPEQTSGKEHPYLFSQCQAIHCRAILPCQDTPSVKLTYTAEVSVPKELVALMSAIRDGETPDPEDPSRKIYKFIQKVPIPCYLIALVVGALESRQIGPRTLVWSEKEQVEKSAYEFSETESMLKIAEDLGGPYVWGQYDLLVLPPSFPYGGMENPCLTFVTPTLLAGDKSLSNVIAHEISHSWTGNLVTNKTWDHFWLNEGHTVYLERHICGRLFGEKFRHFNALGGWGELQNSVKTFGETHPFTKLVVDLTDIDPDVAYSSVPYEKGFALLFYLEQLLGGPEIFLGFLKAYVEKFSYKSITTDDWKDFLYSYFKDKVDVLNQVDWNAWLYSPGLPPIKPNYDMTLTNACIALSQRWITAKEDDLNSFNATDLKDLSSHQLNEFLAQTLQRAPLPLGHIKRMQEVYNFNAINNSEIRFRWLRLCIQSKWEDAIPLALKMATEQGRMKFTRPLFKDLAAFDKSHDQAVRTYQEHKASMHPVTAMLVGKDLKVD

[2] = compound: COc1ccc(Cc2ccc(-c3csc(N)n3)cc2)cc1; assay: as §1, with “measuring Kcat for” for “measuring”, “release at 0.1 uM” for “release”; settings: Homo sapiens
[3] = compound: COc1ccc(Cc2ccccc2)cc1; assay: as above; settings: Homo sapiens
[4] = compound: Cc1ccc(Cc2ccc(-c3csc(N)n3)cc2)cc1; assay: as above; settings: Homo sapiens
[5] = compound: Nc1nc(-c2ccc(Cc3ccc(C(F)(F)F)cc3)cc2)cs1; assay: as above; settings: Homo sapiens
[6] = compound: Nc1nc(-c2ccc(Cc3ccccc3)cc2)cs1; assay: as above; settings: Homo sapiens
[7] = compound: COc1ccc(Cc2ccc(-c3csc(N)n3)cc2)cc1; assay: as §1, with “measuring Kcat for” for “measuring”, “release at 0.5 uM” for “release”; settings: Homo sapiens
[8] = compound: COc1ccc(Cc2ccccc2)cc1; assay: as above; settings: Homo sapiens
[9] = compound: Cc1ccc(Cc2ccc(-c3csc(N)n3)cc2)cc1; assay: as above; settings: Homo sapiens
[10] = compound: Nc1nc(-c2ccc(Cc3ccc(C(F)(F)F)cc3)cc2)cs1; assay: as above; settings: Homo sapiens
[11] = compound: Nc1nc(-c2ccc(Cc3ccccc3)cc2)cs1; assay: as above; settings: Homo sapiens
[12] = compound: COc1ccc(Cc2ccc(-c3csc(N)n3)cc2)cc1; assay: as §1, with “measuring Kcat for” for “measuring”, “release at 1 uM” for “release”; settings: Homo sapiens
[13] = compound: COc1ccc(Cc2ccccc2)cc1; assay: as above; settings: Homo sapiens
[14] = compound: Cc1ccc(Cc2ccc(-c3csc(N)n3)cc2)cc1; assay: as above; settings: Homo sapiens
[15] = compound: Nc1nc(-c2ccc(Cc3ccc(C(F)(F)F)cc3)cc2)cs1; assay: as above; settings: Homo sapiens
[16] = compound: Nc1nc(-c2ccc(Cc3ccccc3)cc2)cs1; assay: as above; settings: Homo sapiens
[17] = compound: COc1ccc(Cc2ccc(-c3csc(N)n3)cc2)cc1; assay: as §1, with “measuring Kcat for” for “measuring”, “release at 5 uM” for “release”; settings: Homo sapiens
[18] = compound: COc1ccc(Cc2ccccc2)cc1; assay: as above; settings: Homo sapiens
[19] = compound: Cc1ccc(Cc2ccc(-c3csc(N)n3)cc2)cc1; assay: as above; settings: Homo sapiens
[20] = compound: Nc1nc(-c2ccc(Cc3ccc(C(F)(F)F)cc3)cc2)cs1; assay: as above; settings: Homo sapiens
[21] = compound: Nc1nc(-c2ccc(Cc3ccccc3)cc2)cs1; assay: as above; settings: Homo sapiens
[22] = compound: COc1ccc(Cc2ccc(-c3csc(N)n3)cc2)cc1; assay: as §1, with “measuring Kcat for” for “measuring”, “release at 10 uM” for “release”; settings: Homo sapiens
[23] = compound: COc1ccc(Cc2ccccc2)cc1; assay: as above; settings: Homo sapiens
[24] = compound: Cc1ccc(Cc2ccc(-c3csc(N)n3)cc2)cc1; assay: as above; settings: Homo sapiens
[25] = compound: Nc1nc(-c2ccc(Cc3ccc(C(F)(F)F)cc3)cc2)cs1; assay: as above; settings: Homo sapiens
[26] = compound: Nc1nc(-c2ccc(Cc3ccccc3)cc2)cs1; assay: as above; settings: Homo sapiens
[27] = compound: COc1ccc(Cc2ccc(-c3csc(N)n3)cc2)cc1; assay: as §1, with “measuring Km for” for “measuring”, “release at 0.1 uM” for “release”; settings: Homo sapiens
[28] = compound: COc1ccc(Cc2ccccc2)cc1; assay: as above; settings: Homo sapiens
[29] = compound: Cc1ccc(Cc2ccc(-c3csc(N)n3)cc2)cc1; assay: as above; settings: Homo sapiens
[30] = compound: Nc1nc(-c2ccc(Cc3ccc(C(F)(F)F)cc3)cc2)cs1; assay: as above; settings: Homo sapiens
[31] = compound: Nc1nc(-c2ccc(Cc3ccccc3)cc2)cs1; assay: as above; settings: Homo sapiens
[32] = compound: COc1ccc(Cc2ccc(-c3csc(N)n3)cc2)cc1; assay: as §1, with “measuring Km for” for “measuring”, “release at 0.5 uM” for “release”; settings: Homo sapiens
[33] = compound: COc1ccc(Cc2ccccc2)cc1; assay: as above; settings: Homo sapiens
[34] = compound: Cc1ccc(Cc2ccc(-c3csc(N)n3)cc2)cc1; assay: as above; settings: Homo sapiens
[35] = compound: Nc1nc(-c2ccc(Cc3ccc(C(F)(F)F)cc3)cc2)cs1; assay: as above; settings: Homo sapiens
[36] = compound: Nc1nc(-c2ccc(Cc3ccccc3)cc2)cs1; assay: as above; settings: Homo sapiens
[37] = compound: COc1ccc(Cc2ccc(-c3csc(N)n3)cc2)cc1; assay: as §1, with “measuring Km for” for “measuring”, “release at 1 uM” for “release”; settings: Homo sapiens
[38] = compound: COc1ccc(Cc2ccccc2)cc1; assay: as above; settings: Homo sapiens
[39] = compound: Cc1ccc(Cc2ccc(-c3csc(N)n3)cc2)cc1; assay: as above; settings: Homo sapiens
[40] = compound: Nc1nc(-c2ccc(Cc3ccc(C(F)(F)F)cc3)cc2)cs1; assay: as above; settings: Homo sapiens
[41] = compound: Nc1nc(-c2ccc(Cc3ccccc3)cc2)cs1; assay: as above; settings: Homo sapiens
[42] = compound: COc1ccc(Cc2ccc(-c3csc(N)n3)cc2)cc1; assay: as §1, with “measuring Km for” for “measuring”, “release at 5 uM” for “release”; settings: Homo sapiens
[43] = compound: COc1ccc(Cc2ccccc2)cc1; assay: as above; settings: Homo sapiens
[44] = compound: Cc1ccc(Cc2ccc(-c3csc(N)n3)cc2)cc1; assay: as above; settings: Homo sapiens
[45] = compound: Nc1nc(-c2ccc(Cc3ccc(C(F)(F)F)cc3)cc2)cs1; assay: as above; settings: Homo sapiens
[46] = compound: Nc1nc(-c2ccc(Cc3ccccc3)cc2)cs1; assay: as above; settings: Homo sapiens
[47] = compound: COc1ccc(Cc2ccc(-c3csc(N)n3)cc2)cc1; assay: as §1, with “measuring Km for” for “measuring”, “release at 10 uM” for “release”; settings: Homo sapiens
[48] = compound: COc1ccc(Cc2ccccc2)cc1; assay: as above; settings: Homo sapiens
[49] = compound: Cc1ccc(Cc2ccc(-c3csc(N)n3)cc2)cc1; assay: as above; settings: Homo sapiens
[50] = compound: Nc1nc(-c2ccc(Cc3ccc(C(F)(F)F)cc3)cc2)cs1; assay: as above; settings: Homo sapiens
[51] = compound: Nc1nc(-c2ccc(Cc3ccccc3)cc2)cs1; assay: as above; settings: Homo sapiens
[52] = compound: COc1ccc(Cc2ccc(-c3csc(N)n3)cc2)cc1; assay: as §1, with “measuring Kcat/Km ratio for” for “measuring”, “release at 0.1 uM” for “release”; settings: Homo sapiens
[53] = compound: COc1ccc(Cc2ccccc2)cc1; assay: as above; settings: Homo sapiens
[54] = compound: Cc1ccc(Cc2ccc(-c3csc(N)n3)cc2)cc1; assay: as above; settings: Homo sapiens
[55] = compound: Nc1nc(-c2ccc(Cc3ccc(C(F)(F)F)cc3)cc2)cs1; assay: as above; settings: Homo sapiens
[56] = compound: Nc1nc(-c2ccc(Cc3ccccc3)cc2)cs1; assay: as above; settings: Homo sapiens
[57] = compound: COc1ccc(Cc2ccc(-c3csc(N)n3)cc2)cc1; assay: as §1, with “measuring Kcat/Km ratio for” for “measuring”, “release at 0.5 uM” for “release”; settings: Homo sapiens
[58] = compound: COc1ccc(Cc2ccccc2)cc1; assay: as above; settings: Homo sapiens
[59] = compound: Cc1ccc(Cc2ccc(-c3csc(N)n3)cc2)cc1; assay: as above; settings: Homo sapiens
[60] = compound: Nc1nc(-c2ccc(Cc3ccc(C(F)(F)F)cc3)cc2)cs1; assay: as above; settings: Homo sapiens
[61] = compound: Nc1nc(-c2ccc(Cc3ccccc3)cc2)cs1; assay: as above; settings: Homo sapiens
[62] = compound: COc1ccc(Cc2ccc(-c3csc(N)n3)cc2)cc1; assay: as §1, with “measuring Kcat/Km ratio for” for “measuring”, “release at 1 uM” for “release”; settings: Homo sapiens
[63] = compound: COc1ccc(Cc2ccccc2)cc1; assay: as above; settings: Homo sapiens
[64] = compound: Cc1ccc(Cc2ccc(-c3csc(N)n3)cc2)cc1; assay: as above; settings: Homo sapiens
[65] = compound: Nc1nc(-c2ccc(Cc3ccc(C(F)(F)F)cc3)cc2)cs1; assay: as above; settings: Homo sapiens
[66] = compound: Nc1nc(-c2ccc(Cc3ccccc3)cc2)cs1; assay: as above; settings: Homo sapiens
[67] = compound: COc1ccc(Cc2ccc(-c3csc(N)n3)cc2)cc1; assay: as §1, with “measuring Kcat/Km ratio for” for “measuring”, “release at 5 uM” for “release”; settings: Homo sapiens
[68] = compound: COc1ccc(Cc2ccccc2)cc1; assay: as above; settings: Homo sapiens
[69] = compound: Cc1ccc(Cc2ccc(-c3csc(N)n3)cc2)cc1; assay: as above; settings: Homo sapiens
[70] = compound: Nc1nc(-c2ccc(Cc3ccc(C(F)(F)F)cc3)cc2)cs1; assay: as above; settings: Homo sapiens
[71] = compound: Nc1nc(-c2ccc(Cc3ccccc3)cc2)cs1; assay: as above; settings: Homo sapiens
[72] = compound: COc1ccc(Cc2ccc(-c3csc(N)n3)cc2)cc1; assay: as §1, with “measuring Kcat/Km ratio for” for “measuring”, “release at 10 uM” for “release”; settings: Homo sapiens
[73] = compound: COc1ccc(Cc2ccccc2)cc1; assay: as above; settings: Homo sapiens
[74] = compound: Cc1ccc(Cc2ccc(-c3csc(N)n3)cc2)cc1; assay: as above; settings: Homo sapiens
[75] = compound: Nc1nc(-c2ccc(Cc3ccc(C(F)(F)F)cc3)cc2)cs1; assay: as above; settings: Homo sapiens
[76] = compound: Nc1nc(-c2ccc(Cc3ccccc3)cc2)cs1; assay: as above; settings: Homo sapiens

Cc1cccc(Cc2ccc(-c3csc(N)n3)cc2)c1
AC50 [1]: 4.81 µM

B1: Leukotriene A-4 hydrolase (Homo sapiens), P09960 (protein)
chain: T1 sequence (P09960 whole entry)
kcat [2]: 9.98 s⁻¹ | kcat [3]: 3.01 s⁻¹ | kcat [4]: 21.1 s⁻¹ | kcat [5]: 1.91 s⁻¹ | kcat [6]: 9.63 s⁻¹ | kcat [7]: 25.9 s⁻¹ | kcat [8]: 5.54 s⁻¹ | kcat [9]: 31.3 s⁻¹ | kcat [10]: 5.09 s⁻¹ | kcat [11]: 21.1 s⁻¹ | kcat [12]: 32 s⁻¹ | kcat [13]: 8.68 s⁻¹ | kcat [14]: 32.5 s⁻¹ | kcat [15]: 8.23 s⁻¹ | kcat [16]: 31.9 s⁻¹ | kcat [17]: 45.2 s⁻¹ | kcat [18]: 23.9 s⁻¹ | kcat [19]: 34.3 s⁻¹ | kcat [20]: 20.9 s⁻¹ | kcat [21]: 42.2 s⁻¹ | kcat [22]: 44.1 s⁻¹ | kcat [23]: 30.3 s⁻¹ | kcat [24]: 35.6 s⁻¹ | kcat [25]: 23.2 s⁻¹ | kcat [26]: 39.6 s⁻¹ | Km [27]: 2.05 mM | Km [28]: 0.98 mM | Km [29]: 3.3 mM | Km [30]: 2.27 mM | Km [31]: 2.17 mM | Km [32]: 4.18 mM | Km [33]: 0.91 mM | Km [34]: 3.11 mM | Km [35]: 4.21 mM | Km [36]: 2.99 mM | Km [37]: 4.75 mM | Km [38]: 1.03 mM | Km [39]: 2.87 mM | Km [40]: 5.94 mM | Km [41]: 4.04 mM | Km [42]: 6.77 mM | Km [43]: 1.52 mM | Km [44]: 2.92 mM | Km [45]: 10.3 mM | Km [46]: 4.72 mM | Km [47]: 6.6 mM | Km [48]: 1.75 mM | Km [49]: 3.12 mM | Km [50]: 10.1 mM | Km [51]: 4.03 mM | kcat/Km [52]: 4870 M⁻¹ s⁻¹ | kcat/Km [53]: 3070 M⁻¹ s⁻¹ | kcat/Km [54]: 6380 M⁻¹ s⁻¹ | kcat/Km [55]: 840 M⁻¹ s⁻¹ | kcat/Km [56]: 4440 M⁻¹ s⁻¹ | kcat/Km [57]: 6180 M⁻¹ s⁻¹ | kcat/Km [58]: 6060 M⁻¹ s⁻¹ | kcat/Km [59]: 10100 M⁻¹ s⁻¹ | kcat/Km [60]: 1210 M⁻¹ s⁻¹ | kcat/Km [61]: 7070 M⁻¹ s⁻¹ | kcat/Km [62]: 6740 M⁻¹ s⁻¹ | kcat/Km [63]: 8460 M⁻¹ s⁻¹ | kcat/Km [64]: 11300 M⁻¹ s⁻¹ | kcat/Km [65]: 1390 M⁻¹ s⁻¹ | kcat/Km [66]: 7890 M⁻¹ s⁻¹ | kcat/Km [67]: 6680 M⁻¹ s⁻¹ | kcat/Km [68]: 15700 M⁻¹ s⁻¹ | kcat/Km [69]: 11700 M⁻¹ s⁻¹ | kcat/Km [70]: 2030 M⁻¹ s⁻¹ | kcat/Km [71]: 8940 M⁻¹ s⁻¹ | kcat/Km [72]: 6680 M⁻¹ s⁻¹ | kcat/Km [73]: 17300 M⁻¹ s⁻¹ | kcat/Km [74]: 11400 M⁻¹ s⁻¹ | kcat/Km [75]: 2300 M⁻¹ s⁻¹ | kcat/Km [76]: 9810 M⁻¹ s⁻¹

From ChEMBL document CHEMBL4414660, “Effect of Modifier Structure on the Activation of Leukotriene A4 Hydrolase Aminopeptidase Activity” (J Med Chem, 2019)
